Earlier results, collected in paper PMC7599994.

Target: HIV-1 capsid CA CTD (Human immunodeficiency virus 1) (UniProt O93182)

## HIV-1 capsid CA CTD (from UniProt O93182)
  Kd: 10 µM
